# Assay results reported in the nanobody polyreactivity screen of Harvey et al. (2022).
# Test: yeast display, Sf9 membrane polyspecificity reagent, FACS + sequencing; frameworks hold sequencing errors
# How it was run: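 Galactose induction of a Saccharomyces cerevisiae BJ5465 synthetic nanobody display library ran 36–48 hours. The cells were then stained for 1 hour at 4 °C with 10% biotinylated, detergent-solubilized Sf9 membrane reagent, pulled down on streptavidin microbeads and FACS-sorted into low and high (top ~1%) gates on expression and reagent-binding fluorescence. Labels for polyreactivity follow the gate of origin.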
row,Sequence,polyreactivity (PSR sort gate)
1,QVQLVESGGGLVQAGGSLRLSCAASGITFDYNAMGWYRPAPGKERELVASITTNDDSTYYADSVKGRFTISRDNAKNTVYLQINSLKPEDTAVYSCNADQITGQFDYWGQGTQVTVSS,low polyreactivity
2,QVQLVESGGGLVQAGGSLRLSCAASGITFDYNAMGWYRQAPGKERELVASINSGGNTNYADSVKGRFTISRDNAKNTVYLQMNSLKPEDTAVYYCATVSYYLYTRYDYWGQGTQVTVSS,low polyreactivity
3,QVQLVESGGGLVQAGGSLRLSCAASGITFDYYAMGWYRQAPGKERELVASISSDSSTYYADSVKGRFTISRDNAKNTVYLQMNSLKPEDTAVYYCNAGDSEYTYYGYYAFDYWGQGSQVTVSS,low polyreactivity
4,QVQLVESGGGLVQAGGSLRLSCAASGITFDYYAMGWYRQEPGKERELVAAISSAGRTYYADSVKGRFTISRDNAKNTVYLQMNSLKPEDTAVYYCAATAFSYYPYHGDYWGQGTQVTVSS,high polyreactivity
5,QVQLVESGGGLVQAGGSLRLSCAASGITFDYYDMGWYRTAPGKERELVAAISSDGSTYYADSVKGRFTISRDNAKNTVYLQMNSLKPEDTAVYYCNAVAIEPYFYVVYDIFDYWGQGTQVTVSS,low polyreactivity
6,QVQLVESGGGLVQAGGSLRLSCAASGITFEGYAMGWYRQAPGKERELVAAIRSSGTSTYYADSVKGRFTISRDNAMNTVYLQMNSLKPEDYAVYYCNRARSSSRYDYWGQGTQGTVSS,low polyreactivity
7,QVQLVESGGGLVQAGGSLRLSCAASGITFERYAMGWYRQAPGKERELVAAITYRGGSTYYADSVKGRFTISRDNAKNTVYLQMNSLKPEDTAVYYCNRARLRGAYIYWGQGTQVTVSS,high polyreactivity
8,QVQLVESGGGLVQAGGSLRLSCAASGITFETYALGWSRQAPGKERELVASIDYDGTSTYYADSVKGRFTISRDNAKNTVYLQMNSLKPEDTAVYYCNARDLDNYGWDDEEYDYWGQGTQVSVSS,low polyreactivity
9,QVQLVESGGGLVQAGGSLRLSCAASGITFEWYDMGWYRQAPGKEKDLVAAISQSGASTYYADSVKGRFTISRDNAKNTVYLQMNSLKPEETAVYYCATRARYVGGYKYNYWGQGTQVTVSS,high polyreactivity
10,QVQLVESGGGLVQAGGSLRLSCAASGITFEYYAMGWYRPAPGKERELVAAIDTGGSTNYADSVKGRFTISRDNAKNTVYLQMNSLKPEDTAVYSCAADWSWWDGEDDHFEYDYWGQGTQVTVSS,low polyreactivity
11,QVQLVESGGGLVQAGGSLRLSCAASGITFFAYTMGWYRQAHGKERELVASISSSGGSTNYADSVKGRFTISRDNAKNTVYLQMNSLKPEDTAVYYCAARQSLYRGGRWYDYWGQGTQVTVSS,high polyreactivity
12,QVQLVESGGGLVQAGGSLRLSCAASGITFFHYAMGWYRQAPGKERELVATISWRAGSTYADSVKGRFTISRDNAKNTVYLQMNSLKPEDTAVYYCNAVWTYHSGSGGYLFDYWGQGTQVTVSS,low polyreactivity
13,QVQLVESGGGLVQAGGSLRLSCAASGITFFPYAMGWYRQAPGKERELVASISDGGGTNYAASVKGRFTISRDNAKNTVYLQMNSLKPEDTAVYYCATDASTYAYYGGDYWGQGTQVTVSS,low polyreactivity
14,QVQLVESGGGLVQAGGSLRLSCAASGITFFVYAMGWYRQAPGKERELVAAISSTASTNYADSVKGRFTISRDNAKYTVYLQMNSRKPEDTAVYYCNAGVWSLGTYWQFDYWGQGTQVTVSS,high polyreactivity
15,QVQLVESGGGLVQAGGSLRLSCAASGITFFYYAMGWYRQAPGKERELVAAINWSGRTYYADSVKGRFTISRDNAKNTVYLQMNSLKPEDTAVSYCAAVTYGPGVSGMDYWGQGTQVTVSS,low polyreactivity
16,QVQLVESGGGLVQAGGSLRLSCAASGITFFYYAMGWYRQAPGKERELVAAISTSGGRTYYADSVKGRFTISRDNAKNTVYLQMNSLKPEDTAVYYCAARSRVPPAGPRYDYWGQGTQVTVSS,high polyreactivity

row,Sequence,polyreactivity (PSR sort gate)
1,QVQLVESGGGLVQAGGSLRLSCAASGITFGANTMGWYRQAPGKERELVAAITISGGITHYADSVKGRFTISRDNAKNTVYLQMNSLKPEDTAVYYCAAGAYWRLYPYRQRNGGRMYYWGQGTQVTVSS,low polyreactivity
2,QVQLVESGGGLVQAGGSLRLSCAASGITFGAYAMGWDRQAPGKERELVASISSSGSTYADSVKGRFTISRDNAKTTVYLQMNSLKPEDTAVYYCNAVGFQANDYNYWRQGTQVTVSS,low polyreactivity
3,QVQLVESGGGLVQAGGSLRLSCAASGITFGAYTMGWYRQAPGKERELVAAISGSGGSTYYADSVKGRFTISRDNAKNTVYLQMNSLKPEDTAVTYCNKVLSPHLGCSFDYWGQGTEVTVSS,high polyreactivity
4,QVQLVESGGGLVQAGGSLRLSCAASGITFGDYAMVWYRQAPGKERELVAAITSGGSTYYADSVKGRCTISRDNAKNTVYLQMNILKPEDTAVYYCNRQYNQWIHYYYRMDYWGQGTQVTVSS,high polyreactivity
5,QVQLVESGGGLVQAGGSLRLSCAASGITFGDYAMVWYRQAPGKERELVAGINWSGDGTYYADSLKGRFTISRDKAKNTVYLQMNSLKPEDSAVYYCAAETFYDYGGYDYWGQGTQVTVSS,low polyreactivity
6,QVQLVESGGGLVQAGGSLRLSCAASGITFGDYTMGWYRQAPGKERELVAVISSGGNTNYADSVKGRFTISRDNAKNTVYLQMNSLKPEDTAVYYCAAVIASYGTRYRGGYTRYYYWGQGTQVTVSS,high polyreactivity
7,QVQLVESGGGLVQAGGSLRLSCAASGITFGHYAMGWYRQAPGKERQLVAGINWSGDGRYYADSVKGRFTISRDNAKNTVYLQMNSLKPEDTAVYYCDAETFYDYGGYDYWGQGTQVTVSS,low polyreactivity
8,QVQLVESGGGLVQAGGSLRLSCAASGITFGHYTMGWYRQAPGKEWDLVAAISWSGGSTYYADSVKGRFTISRDNAKYTVYLQMNSLKPEDTAVYYCNRVKRVIASYDSDYWGQGTQVTVSS,low polyreactivity
9,QVQLVESGGGLVQAGGSLRLSCAASGITFGIYAMGWYRQAPGKERELVAAIDGSDGSTYYADSVKGRFTISRDNAKNTVYLQMKSLKPEDTAVYYCNAENGYSWDVFSDYWGQGTQVTVSS,low polyreactivity
10,QVQLVESGGGLVQAGGSLRLSCAASGITFGIYVMGWYRPAPGKEWELVATISRSDDNTYYADSVKGRFTISRDNAKNTVYLQMNSLKPEDTAVYYCAAYWYDLYWDYYTFDYWGQGTQVTVSS,low polyreactivity
11,QVQLVESGGGLVQAGGSLRLSCAASGITFGKNAMGWYRQAPGKERELVATIRRSGGSTYADSVKGRFTISRDNAKNTVYLQMNSLKPEDTAVYYCNARSWNTYNYWGQGTQVTVSS,high polyreactivity
12,QVQLVESGGGLVQAGGSLRLSCAASGITFGNYAMGWYRQAPGKERELVAAITGSGGRTYYADSVKGRFTISRDNAKNTVYLQMNSLKPEDTAVYYCNRRQYGRKKQYDYWGQGTQVTVSS,high polyreactivity
13,QVQLVESGGGLVQAGGSLRLSCAASGITFGPNAMGWYRQAPGKERELVAAISWRGGSTYYADSVKGRFTISRDNAKNTVYLQMNSLKPEDTAVYYCAKVQIPASYIRYDYWGQGTQVTVSS,low polyreactivity
14,QVQLVESGGGLVQAGGSLRLSCAASGITFGPYAMGWYRQAPGKERELVAAISAGGGSTYYADSVKGRFTISRDNAKNTVYLQMNSLKPEDTAVYYCAAYLLHHYGGPEYYYWGQGTQVTVSS,high polyreactivity
15,QVQLVESGGGLVQAGGSLRLSCAASGITFGPYAMGWYRQAPGKERELVAAISYSGGRTYYADSVKGRFTISRDNAKNTVYLQMNSLKPEDTAVYFCARRYGYFGYEYDYWGQGTQVTVSS,high polyreactivity
